Blank lines part the entries; values can stand above or below the binder they belong to.
What was measured:
[1] = target: T1, 重组人β2-微球蛋白 (recombinant human β2-microglobulin, expressed in E. coli) (human, UniProt P61769 21-119); experiment: Western blot, HRP-labelled scFv on recombinant β2-MG
T1 construct: The same in-house recombinant protein serves as immunogen, ELISA coat and Western blot sample; also called β2-MG; 人β2-MG

[2] = target: T1, 重组人β2-微球蛋白 (recombinant human …); experiment: indirect ELISA, hybridoma supernatant on coated recombinant human β2-MG (1 μg/mL), HRP goat anti-mouse IgG

- binding result [1]: binds
B1: 单链抗体BM17 (anti-human β2-microglobulin scFv BM17) (scFv)
scFv: QVTLKESGPGILQPSQTLSLTCSFSGFSLSTSGMGVSWIRQPSGKGLEWLAHIYWDDDKRYNPSLKSRLTISKDTSSNQVFLKITSVDTADTATYYCARVYYGYDGGFFDYWGQGTTLTVSSGGGGSGGGGSGGGGSQIVLTQSPAIMSASPGEKVTITCSASSSVSYMHWFQQKPGTSPKLWIYSTSNLASGVPARFSGSGSGTSYSLTISRMEAEDAATYYCHQRSSYPLTFGAGTKLEIK
notes: expressed in Pichia pastoris X-33; HRP-labelled in the Western blot; used as gold-labelled or coating antibody in the colloidal gold card; also called BM17-HRP; BM17-scFv

- binding result [1]: binds
B4: 单链抗体BM12 (anti-human β2-microglobulin scFv BM12) (scFv)
scFv: DVKLVESGGGLVKPGGSLKLSCAASGFTFGSYTMSWVRQTPEKRLEWVAAISSGGSFTYYLDSVKGRFTISRDSAKTTLYLQMGSLKSEDTAMYYCSREGGPYYGSHYYALDYWGQGTSVTVSSGGGGSGGGGSGGGGSDIQMTQSTSSLSASLGDGVTISCRASQDITNYLNWYQQRPDGAVRLLIYYTSRLHSGVPSRFSGSGSGTNYSLTISNLEQEDIATYFCQQGNTLPPTFGGGTKLEIK
notes: expressed in Pichia pastoris X-33; HRP-labelled in the Western blot; used as coating or gold-labelled antibody in the colloidal gold card; also called BM12-HRP; BM12-scFv

Further lines, the binder ahead of its results:

B2: 杂交瘤细胞株B17所表达抗体 (antibody expressed by hybridoma cell line B17) (antibody, V domains shown)
VH: not shown
VL: QIVLTQSPAIMSASPGEKVTITCSASSSVSYMHWFQQKPGTSPKLWIYSTSNLASGVPARFSGSGSGTSYSLTISRMEAEDAATYYCHQRSSYPLTFGAGTKLEIK
notes: Mouse monoclonal antibody tested as hybridoma culture supernatant and detected with HRP goat anti-mouse IgG
- binding result [2]: binds

B3: 杂交瘤细胞株B12所表达抗体 (antibody expressed by hybridoma cell line B12) (antibody, V domains shown)
VH: DVKLVESGGGLVKPGGSLKLSCAASGFTFGSYTMSWVRQTPEKRLEWVAAISSGGSFTYYLDSVKGRFTISRDSAKTTLYLQMGSLKSEDTAMYYCSREGGPYYGSHYYALDYWGQGTSVTVSS
VL: DIQMTQSTSSLSASLGDGVTISCRASQDITNYLNWYQQRPDGAVRLLIYYTSRLHSGVPSRFSGSGSGTNYSLTISNLEQEDIATYFCQQGNTLPPTFGGGTKLEIK
notes: as for B2
- binding result [2]: binds

Reference: patent CN109666072A (ZONHON BIOPHARMA INST INC, dated 2019)
